Here are results for 2 molecules from PMC10275993.

The test has as its target acidic H8 loop of karyopherin β2 (KAPB2-H8). In words: turbidity (OD600) of liquid-liquid phase separation, critical salt concentration; 50 μM R-DPR peptide mixed with 50 μM KAPB2-H8 peptide in 10 mM HEPES pH 7.4 with 0 to 400 mM NaCl; droplets also imaged by confocal microscopy.

B1: (PR)20 (peptide)
peptide: PRPRPRPRPRPRPRPRPRPRPRPRPRPRPRPRPRPRPRPR
As to B1, the critical salt concentration (NaCl at which the droplets disappeared) is 250 mM.

B2: (GR)20 (peptide)
peptide: GRGRGRGRGRGRGRGRGRGRGRGRGRGRGRGRGRGRGRGR
For B2, the NaCl concentration until which the droplets remained turned out to be 300 mM.
